According to US20260184766A1:

B1: SKD chimeric bovine-human IgG1 (ultralong CDR3) (antibody)
VH: QVQLRESGPSLVKPSQTLSLTCTASGFSLSDKAVGWVRQAPGKALEWLGSIDTGGNTGYNPGLKSRLSITKDNSKSQVSLSVSSVTTEDSATYYCTTVHQRTSEKRSCPGGSSRRYPSGASCDVSGGACACYVSNCRGVLCPTLNEIVAYTYEWHVDAWGQGLLVTVSS
VL: QAVLNQPSSVSGSLGQRVSITCSGSSSNVGNGYVSWYQLIPGSAPRTLIYGDTSRASGVPDRFSGSRSGNTATLTISSLQAEDEADYFCASAEDSSSNAVFGSGTTLTVL
B2: R2D9 chimeric bovine-human IgG1 (ultralong CDR3) (antibody)
VH: QVQLRESGPSLVKPSQTLSLTCTASGFSLSDKAIGWVRQAPGKALEWLGSIDTRGNTGYNPGLKSRLSITKDSSKSQVSLSVNSVTTEDSATYLCAIVQQITHKTCPNGYNWFDRCCSWDGTCGDGCCSNRAWPSGNGRADSSIGETYGYEFHVAAWGQGLLVTVSS
VL: B1 VL
B3: R4C1 chimeric bovine-human IgG1 (ultralong CDR3) (antibody)
VH: QVQLRESGPSLVKPSQTLSLTCTASGFSLSDKAVGWVRQAPGKPLEWLGSIDTAENTGYNPGLKSRLSITKDNSKSQVSLSVSSVTTEDSATYYCATVHQKTRKEKNCPDGYIYSSNTASGYDCGVWICRRVGSAFCSRTGDYTSPSEFDIYEFYVEGWGQGLLVTVSS
VL: B1 VL
B4: SKM chimeric bovine-human IgG1 (ultralong CDR3) (antibody)
VH: QVQLRESGPSLVKPSQTLSLTCTASGFSLSDKAVGWVRQAPGKALEWLGSIDTGGNTGYNPGLKSRLSITKDNSKSQVSLSVSSVTTEDSATYYCTTVHQETLRSCPDGYIDNSGCTADWGCAALDCWRRRFGYHSTDPSHYTGATYIYTYSLHIDAWGQGLLVTVSS
VL: B1 VL

How the values were obtained:
[1] = molecular target: SARS-CoV-2 S variant K417N/E484K/N501Y (B.1.351, SA variant; beta lineage) carried by pseudotyped virus (SARS-CoV-2 B.1.351), P0DTC2; experiment: cell-based or functional assay
[2] = molecular target: SARS-CoV-2 S variant 484K carried by pseudotyped virus (SARS-CoV-2), P0DTC2; experiment: cell-based or functional assay
[3] = molecular target: SARS CoV-2 omicron variant spike RBD (SARS-CoV-2 omicron variant); experiment: ELISA on omicron variant RBD (panel RBD), OD450
[4] = molecular target: SARS CoV-2 omicron variant recombinant stabilized spike trimer (SARS-CoV-2 omicron variant)

Row | Binder | EC50 (pM), pseudovirus luciferase assay [1] [pM] | Neutralization of Pseudovirus (ng/mL; parameter not named) [1] [ng/mL] | EC50 (pM), pseudovirus luciferase assay [2] [pM] | EC50 (read off the curve) [3] [nM] | EC50 (read off the curve) [4] [nM]
1 | B1 | > 1000 | > 1000 | > 1000 | – | –
2 | B2 | – | – | – | 0.4 | 0.4
3 | B3 | – | 375 | – | – | –
4 | B4 | > 1000 | > 1000 | > 1000 | – | –
